Common to all, as to experiment: Kinase Profiling Assay
Common to all, as to format: biochemical
Settings in all cases: 100 μM

One assay has as its target T1, PKG1α (h) (Homo sapiens, UniProt Q13976).
T1 sequence (Q13976 1-671): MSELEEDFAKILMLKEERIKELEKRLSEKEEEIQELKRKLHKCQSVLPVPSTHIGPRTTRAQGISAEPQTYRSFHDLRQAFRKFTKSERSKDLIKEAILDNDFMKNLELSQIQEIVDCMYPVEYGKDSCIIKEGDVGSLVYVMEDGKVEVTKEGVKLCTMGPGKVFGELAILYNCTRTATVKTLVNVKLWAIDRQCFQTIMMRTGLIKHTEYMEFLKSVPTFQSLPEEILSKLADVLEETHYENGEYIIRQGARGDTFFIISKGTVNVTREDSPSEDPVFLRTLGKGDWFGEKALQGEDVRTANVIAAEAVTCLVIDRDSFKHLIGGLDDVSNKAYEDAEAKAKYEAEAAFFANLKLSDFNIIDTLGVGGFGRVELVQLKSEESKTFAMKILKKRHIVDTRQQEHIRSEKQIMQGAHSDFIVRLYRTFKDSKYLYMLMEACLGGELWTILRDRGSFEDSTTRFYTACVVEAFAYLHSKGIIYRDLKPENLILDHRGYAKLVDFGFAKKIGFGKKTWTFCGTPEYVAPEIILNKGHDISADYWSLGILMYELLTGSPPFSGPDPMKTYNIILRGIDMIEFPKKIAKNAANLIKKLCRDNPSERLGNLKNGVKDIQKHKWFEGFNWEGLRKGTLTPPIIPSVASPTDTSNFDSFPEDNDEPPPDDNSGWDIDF
Put shortly: (§1)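 In this 266-kinase specificity panel, every measurement was duplicated. Transfer of labeled phosphate from ATP to a cationic substrate was quantified after the substrate adhered to an anionic filter membrane and was scintillation-counted, then related to a full-activity control.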

In a further assay the target is PKCθ (h) (Homo sapiens, UniProt Q04759). Put shortly: as §1
In a further assay the target is T2, Mer (h) (Homo sapiens, UniProt Q12866).
T2 sequence (Q12866 21-999): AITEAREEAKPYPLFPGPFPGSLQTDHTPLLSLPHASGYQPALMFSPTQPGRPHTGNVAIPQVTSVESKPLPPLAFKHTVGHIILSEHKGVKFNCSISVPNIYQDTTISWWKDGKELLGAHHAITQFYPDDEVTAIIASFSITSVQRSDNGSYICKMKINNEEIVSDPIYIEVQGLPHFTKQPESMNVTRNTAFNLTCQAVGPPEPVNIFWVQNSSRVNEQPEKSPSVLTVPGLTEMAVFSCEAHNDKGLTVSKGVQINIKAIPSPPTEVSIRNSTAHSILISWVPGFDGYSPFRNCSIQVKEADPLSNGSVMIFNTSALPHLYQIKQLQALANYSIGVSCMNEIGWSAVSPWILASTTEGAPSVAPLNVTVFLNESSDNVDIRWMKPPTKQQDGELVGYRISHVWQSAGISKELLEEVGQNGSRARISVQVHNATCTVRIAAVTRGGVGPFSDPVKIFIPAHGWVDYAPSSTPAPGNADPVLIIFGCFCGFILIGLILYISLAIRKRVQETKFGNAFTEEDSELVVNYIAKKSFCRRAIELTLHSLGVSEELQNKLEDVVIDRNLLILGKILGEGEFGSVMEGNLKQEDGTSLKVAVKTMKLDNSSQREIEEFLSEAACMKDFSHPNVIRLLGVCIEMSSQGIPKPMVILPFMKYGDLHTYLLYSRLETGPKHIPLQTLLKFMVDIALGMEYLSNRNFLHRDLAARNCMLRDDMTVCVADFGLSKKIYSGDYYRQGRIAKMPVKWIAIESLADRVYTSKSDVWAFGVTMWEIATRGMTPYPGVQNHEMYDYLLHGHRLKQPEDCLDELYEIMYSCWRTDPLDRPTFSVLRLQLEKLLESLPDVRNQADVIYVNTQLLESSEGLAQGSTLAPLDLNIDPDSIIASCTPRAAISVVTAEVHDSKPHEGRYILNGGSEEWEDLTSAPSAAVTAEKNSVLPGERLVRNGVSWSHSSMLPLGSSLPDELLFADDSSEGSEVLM
Put shortly:
as §1

The next assay has as its target T3, PRAK (h) (Homo sapiens, UniProt Q8IW41).
T3 sequence (Q8IW41 1-473): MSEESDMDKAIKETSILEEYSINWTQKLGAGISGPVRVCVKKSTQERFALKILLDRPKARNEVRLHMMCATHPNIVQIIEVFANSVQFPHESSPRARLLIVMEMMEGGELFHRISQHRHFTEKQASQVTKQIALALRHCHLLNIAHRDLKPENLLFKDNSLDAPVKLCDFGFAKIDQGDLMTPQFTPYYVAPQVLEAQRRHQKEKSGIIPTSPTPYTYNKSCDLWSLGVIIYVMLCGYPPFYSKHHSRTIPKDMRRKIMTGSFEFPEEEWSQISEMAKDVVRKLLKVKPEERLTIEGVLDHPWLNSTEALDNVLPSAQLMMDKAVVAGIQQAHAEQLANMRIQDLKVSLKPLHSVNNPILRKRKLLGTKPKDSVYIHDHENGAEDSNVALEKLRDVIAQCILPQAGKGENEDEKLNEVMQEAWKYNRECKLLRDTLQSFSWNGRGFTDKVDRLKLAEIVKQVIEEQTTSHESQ
The procedure, abridged: as §1

Sequence of PKCθ (h) (Q04759 whole entry): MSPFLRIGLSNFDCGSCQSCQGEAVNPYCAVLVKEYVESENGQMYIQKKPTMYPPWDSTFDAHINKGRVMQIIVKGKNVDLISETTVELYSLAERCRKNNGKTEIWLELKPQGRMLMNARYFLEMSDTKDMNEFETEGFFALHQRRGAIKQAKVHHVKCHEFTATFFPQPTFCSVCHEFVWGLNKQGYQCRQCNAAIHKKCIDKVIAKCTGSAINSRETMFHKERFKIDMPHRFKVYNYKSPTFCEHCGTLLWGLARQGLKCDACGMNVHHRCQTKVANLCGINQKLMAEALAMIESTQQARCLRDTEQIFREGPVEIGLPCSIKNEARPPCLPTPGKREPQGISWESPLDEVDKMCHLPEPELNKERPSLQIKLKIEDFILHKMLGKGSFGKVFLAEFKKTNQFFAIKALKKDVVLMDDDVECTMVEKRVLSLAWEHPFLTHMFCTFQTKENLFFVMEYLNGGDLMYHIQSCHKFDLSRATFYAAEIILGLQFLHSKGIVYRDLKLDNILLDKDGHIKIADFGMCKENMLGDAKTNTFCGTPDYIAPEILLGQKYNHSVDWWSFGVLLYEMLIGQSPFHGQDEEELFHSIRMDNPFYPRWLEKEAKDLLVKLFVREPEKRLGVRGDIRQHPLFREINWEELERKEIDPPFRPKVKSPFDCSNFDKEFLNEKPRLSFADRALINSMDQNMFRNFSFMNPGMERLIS

Turning to KAFAKLAARLYRKALARQLGVAA [MMI-0400], the “% activity” value with PKG1α (h) is 58%; in the assay with PKCθ (h), 76%; with Mer (h) it was 50%; with PRAK (h), 118%.
Turning to “YARAAARQARAKALNRQLGVA (Mammalian) [MMI-0200]”, the “% activity” value with PKG1α (h) is on record as 70%; with PKCθ (h), 101%; in the assay with Mer (h), 90%.
“HRRIKAWLKKIKALARQLGVAA (Mammalian) [MMI-0500]”: the “% activity” value turned out to be 25% with PKG1α (h), 62% with PKCθ (h), 17% in the assay with Mer (h) and 95% in the assay with PRAK (h).
For the sequence FAKLAARLYRKALARQLGVAA [MMI-0300], the “% activity” value with PKG1α (h) stood at 64%; in the assay with PKCθ (h), 88%; in the assay with Mer (h) it was 52%; with PRAK (h) it was 128%.

The record behind these values is patent publication US10500249B2, “Compositions and methods for preventing or treating diseases, conditions, or processes characterized by aberrant fibroblast proliferation and extracellular matrix deposition” (MOERAE MATRIX, INC., priority 2014, dated 2019).
